We go through one substance from patent publication US7132258B1, “Nucleic acid encoding vitamin D receptor related polypeptide” (University of Massachusetts, priority 1998, dated 2006).

This test deals with T1, COUP (LBD of COUP-TFI) (Homo sapiens, UniProt P10589).
T1 construct: COUP (LBD of COUP-TFI); expressed in transfected cells; host or cells: Saccharomyces cerevisiae Y190
T1 sequence (P10589 184-410 limits assumed): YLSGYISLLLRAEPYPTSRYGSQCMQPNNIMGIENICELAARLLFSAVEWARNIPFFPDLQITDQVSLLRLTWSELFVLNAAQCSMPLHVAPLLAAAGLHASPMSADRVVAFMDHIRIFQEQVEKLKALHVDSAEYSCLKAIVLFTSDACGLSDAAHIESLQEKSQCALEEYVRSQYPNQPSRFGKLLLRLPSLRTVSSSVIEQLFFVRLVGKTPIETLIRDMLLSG
Description: Yeast two-hybrid interaction with COUP-TFI. The format is binding. As to conditions: β-galactosidase ONPG assay. On the procedure: The protein—protein interactions between RAC3 and several steroid/nuclear receptors were analyzed by the yeast two-hybrid system. The original two-hybrid clone, RAC3.1 in pGAD10 vector, was retransformed together with yeast expression vectors for Gal4 DBD fusion of selected hormone receptor genes into Y190 cells. The receptors used include RAR (full-length hRARα), RXR (full-length hRXRα), VDR (LBD of human Vitamin D receptor), PPAR (LBD of mPPARα), TR (LBD) of hTRβ), COUP (LBD of COUP-TFI). Three independent colonies from each transformation were selected and analyzed for expression of […] activities by liquid ONPG assay (FIG. 6) after treatment with 1 μM of corresponding ligands (closed bars), or with equal concentration of vehicle alone (open bars). […] The ligands used in these experiments were atRA, VitD3 (1,25-dihydroxyvitamin D3), and Wy (Wy 14,642). […] In the absence of ligand, RAC3 can interact with RAR and PPAR.

Regarding “RAC3: transcriptional coactivator of steroid/nuclear receptors, protein of about 1417 amino acids (SEQ ID NO:2); RAC3.1 is the two-hybrid clone, amino acids 401–1204”, the “interaction with COUP-TFI” value is listed as “did not interact”.
